Reference: patent publication US20260234242A1 (HAINAN SIMCERE ZAIMING PHARMACEUTICAL, published 2026)
Numbering of substitutions follows the chain as printed. One block for each binder: values may come before it.

What was measured:
[1] = target: T1, human CDH6 with EC4 removed, on HEK293T cells (HEK293T-hCDH6-EC4 deletion) (human, UniProt P55285 54-790); assay: FACS, HEK293T-hCDH6-EC4 deletion cells
T1 construct: Signal peptide not removed here
T1 sequence: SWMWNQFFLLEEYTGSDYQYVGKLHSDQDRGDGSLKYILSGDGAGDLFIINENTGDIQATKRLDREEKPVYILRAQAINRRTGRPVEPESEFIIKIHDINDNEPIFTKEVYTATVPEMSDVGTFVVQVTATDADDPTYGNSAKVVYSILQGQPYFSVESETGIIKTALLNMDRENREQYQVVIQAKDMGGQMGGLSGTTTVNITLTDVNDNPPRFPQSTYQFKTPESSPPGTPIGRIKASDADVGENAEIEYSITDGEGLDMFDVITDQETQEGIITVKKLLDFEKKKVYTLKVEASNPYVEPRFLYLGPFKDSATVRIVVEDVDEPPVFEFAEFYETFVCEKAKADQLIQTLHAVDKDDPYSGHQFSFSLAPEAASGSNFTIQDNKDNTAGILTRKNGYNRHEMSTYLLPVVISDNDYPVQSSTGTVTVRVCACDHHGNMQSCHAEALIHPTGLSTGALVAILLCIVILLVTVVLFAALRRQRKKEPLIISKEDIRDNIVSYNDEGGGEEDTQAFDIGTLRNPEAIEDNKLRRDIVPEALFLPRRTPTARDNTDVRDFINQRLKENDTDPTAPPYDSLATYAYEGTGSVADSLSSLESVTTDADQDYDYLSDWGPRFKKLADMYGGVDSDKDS
Excerpt: To confirm the binding epitope of the CDH6 antibody, the sequences after removal of these 5 regions were constructed into pcDNA3.1 vectors (purchased from Youbio, Cat. No. VT1001), and transfected into HEK293T cells (purchased from Cell Bank of Chinese Academy of Sciences, Cat. No. SCSP-502) to obtain 5 CDH6 truncated cell lines: HEK293T-hCDH6-EC1 deletion, HEK293T-hCDH6-EC2 deletion, HEK293T-hCDH6-EC3 deletion, HEK293T-hCDH6-EC4 deletion, and HEK293T-hCDH6-EC5 deletion.
The binding activity of the CDH6 chimeric antibodies to these 5 cell lines was assayed by FACS.

[2] = target: T2, his-tagged human CDH6 extracellular region protein (hCDH6 ECD-his) (human, UniProt P55285 19-615); assay: SPR Biacore 8K, antibody captured on Protein A
T2 construct: also called Human CDH6-his; hCDH6-his; not shown: his tag
T2 sequence: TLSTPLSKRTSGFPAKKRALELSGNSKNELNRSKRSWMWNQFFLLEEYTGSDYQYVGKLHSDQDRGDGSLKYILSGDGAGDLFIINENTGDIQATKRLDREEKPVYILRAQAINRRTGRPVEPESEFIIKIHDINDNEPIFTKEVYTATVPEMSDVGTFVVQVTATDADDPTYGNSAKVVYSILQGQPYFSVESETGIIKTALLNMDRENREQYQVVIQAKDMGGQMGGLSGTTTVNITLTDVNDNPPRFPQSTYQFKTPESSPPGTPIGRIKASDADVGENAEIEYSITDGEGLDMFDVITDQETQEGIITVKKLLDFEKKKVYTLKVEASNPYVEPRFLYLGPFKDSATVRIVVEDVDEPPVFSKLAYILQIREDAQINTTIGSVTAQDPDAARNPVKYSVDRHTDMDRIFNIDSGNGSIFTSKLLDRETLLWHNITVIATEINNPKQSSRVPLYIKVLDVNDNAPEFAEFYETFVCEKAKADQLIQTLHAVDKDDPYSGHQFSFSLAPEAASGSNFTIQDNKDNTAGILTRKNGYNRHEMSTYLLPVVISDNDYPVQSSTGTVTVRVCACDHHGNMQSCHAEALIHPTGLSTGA
Procedure: The affinity of the antibody for the antigen was determined by a multi-cycle kinetic method using a BIAcore 8K instrument. In each cycle, the antibody to be tested was captured using a Protein A chip (purchased from GE, Cat. No. 29-1275-56), and then the antigen human CDH6 protein (hCDH6-his, conventionally synthesized) was injected. The association and dissociation processes of the antibody with the antigen protein were recorded, and finally, the chip was regenerated using Glycine pH 1.5, wherein the mobile phase was HBS-EP+ (10 mM HEPES, 150 mM NaCl, 3 mM EDTA, 0.05% surfactant P20, and 1 mM Ca), the flow rate was 30 μL/min, the association time was 240 s, the dissociation time was 300 s, the regeneration time was 30 s, the detection temperature was 25° C., and the antigen concentration was 31.25-1000 nM. The data were analyzed using Biacore 8K analysis software (version No. 2.0) based on the 1:1 binding model to fit the antibody-antigen binding kinetic parameters, including the association rate constant ka, the dissociation rate constant kd, and the equilibrium dissociation constant KD. The affinity values of the control antibody DS-H01L02 were undetectable. Antibodies not shown in the table had undetectable affinity values.

[3] = target: T2, his-tagged human CDH6 extracellular …; assay: ELISA, coated antigen

B5: CHI-CDH6-11 (antibody, human IgG1, kappa, V domains shown)
VH: QIQLQQSGPELVKPGASVRISCKASGYTFTDYYITWVKLRPGQGLEWIGWIYPGSVNIKYNEKFKGKATLTVDTSSSTAYMQLNSLTSEDSAVYFCARGGYSWFPYWGQGTLVTVSA
VL: NIVMTQSPKSMSMSVGERVTLSCKASENVHTYVSWYQQKPEQSPKLLFYGASTRNTGVPDRFTGSGSATDFTLTISSVQAEDLADYYCGQSYSYPYTFGSGTKLEIKR
notes: also called chimeric antibody of murine CDH6-11
Kd [2]: 5.72 nM
koff [2]: 0.000201 s⁻¹
kon [2]: 35200 M⁻¹ s⁻¹
EC50 [3]: 0.034 nM
Max OD450 [3]: 2.24 OD450

B6: CHI-CDH6-6 (antibody, human IgG1, kappa, V domains shown)
VH: EVQLQQSGPELVKPGDSVKMSCKASGYTFTDYYMAWVRQSHRKSLEWIGYIFPNSGGTDYSQKFKGKATLTVDKSSSTVYMELHSLTSEDSAVYYCARELGADYGDYYAMDHWGQGTSVSVSS
VL: DIQMTQSPASLSASVGETVTITCRASENIDSYLAWYQQKQGKSPQLLVYSATLLADGVPSRFSGSGSGTQYSLKINSLKSEDVARYYCQHYYRTPPTFGSGTKLEIKR
notes: also called CHI-hCDH6-6; chimeric antibody of murine CDH6-6
Kd [2]: 58.6 nM
koff [2]: 0.00508 s⁻¹
kon [2]: 86800 M⁻¹ s⁻¹
EC50 [3]: 0.034 nM
Max OD450 [3]: 2.18 OD450

B7: CHI-CDH6-8 (antibody, human IgG1, kappa, V domains shown)
VH: EVQLQQSGPELVKPGDSVKMSCKASGYTFTDYYMAWIKQNHGKSLEWIGYIYPNNGGTDYNQKFRGKATLTVDKSSSAAYMELHSLTSEDSAVYYCAREIGTLYGDYYAMDYWGQGTSVTVSS
VL: B6 VL with S50T, K79Q, R93S
notes: also called chimeric antibody of murine CDH6-8
Kd [2]: 31.2 nM
koff [2]: 0.00378 s⁻¹
kon [2]: 121000 M⁻¹ s⁻¹
EC50 [3]: 0.033 nM
Max OD450 [3]: 2.31 OD450

B9: CHI-CDH6-9 (antibody, human IgG1, kappa, V domains shown)
VH: QVQLQQPGAELVKPGASVKLSCKASGYTFTGYWMHWVRQRPGQGLEWIGEINPNNGGTNCNEQFKNKATLTVDKSSSTAYMQLSSLTSEDSAVFYCTISFGNYLFFDVWGAGTTVTVSS
VL: DIQMTQSPASLAASVGETITITCQASENIYFSLAWYQQKQGKSPQLLIYNANTLEDGVPSRFVGSGSGTQYSMKINSIQPEDTATYFCDQTYDFPWTFGGGTKLEIKR
notes: also called chimeric antibody of murine CDH6-9
Kd [2]: 138 nM
koff [2]: 0.00159 s⁻¹
kon [2]: 11600 M⁻¹ s⁻¹
EC50 [3]: 0.016 nM
Max OD450 [3]: 2.58 OD450

B10: CHI-CDH6-4 (antibody, human IgG1, kappa, V domains shown)
VH: QVQLQQSGPELVKPGASVKISCKASGYAFSNFWMNWVKQRPGKGLEWIGWIYPGDGDTNYNGKFKDKATLTADKSSSTAYIQLSSLTSEDSAVYFCARLYDAWGFFDYWGQGTTLTVSS
VL: QIVLTQSPAIMSASPGQKVTITCSASSSVNYMHWYQQKLGSSPKLWIYDKSKLAPGVPARFSGSGSGTSYSLTISSMEAEDAASYFCHQWSSYPPMTFGGGTKLEIKR
notes: also called CH1-CDH6-4; chimeric antibody of murine CDH6-4
Max MFI [1]: 22200 MFI

B11: CHI-CDH6-5 (antibody, human IgG1, kappa, V domains shown)
VH: QVQLQQSGAELVRPGTSVKMSCKAAEYTFTNYWIGWVKQRPGHGLEWIGDLYPGGDHANYNEKFEGKATLTADTSSSTAYMQLSSLTSEDSAIYYCARGMLTTGFDSWGQGTTLTVSS
VL: DIVMSQSPSSLAVSAGEKVTMSCKSSQSLFNSRTRKNYLAWYQQKPGQSPKLLIYWASTRESGVPDRFTGSGSGTDFTLTISSVQAEDLAVYYCKQSYYLRTFGGGTKLEIKR
notes: also called CH1-CDH6-5; chimeric antibody of murine CDH6-5
Max MFI [1]: 18700 MFI

Other lines, results leading:

Max MFI [1]: 16800 MFI
B1: CHI-CDH6-3 (antibody, human IgG1, kappa, V domains shown)
VH: QVQLQQPGAELVKPGASVKLSCKASGYTFTSYWIHWVKQRPGQGLEWIGEINPSNGVTNCNENFKSKATLTVDKSSSTAYMQLSSLTSEDSAVYYCTIPNLLWWYFDVWGAGTTVTVSS
VL: DIQMTQSPASLSVSVGETVTITCRASENIYSNLAWYQQKQGKSPQLLVYEATNLADGVPSRFSGSGSGTQYSLKINSLQSEDFGSYYCQHFWGTLWTFGGGTKLEIKR
notes: also called CH1-CDH6-3; chimeric antibody of murine CDH6-3

Max MFI [1]: 26600 MFI
B2: CHI-CDH6-14 (antibody, human IgG1, kappa, V domains shown)
VH: QIQLQQSGPELVKPGTSVKISCKASGYTFTDNYINWVRQRPGQGLEWIGWIYPGTGNSYYNEKFKGKATLTVDTSSSTAYMQFSSLTSEDSAVYLCASSYGDSFDYWGQGTTLTVSS
VL: DIQMTQTTSSLSASLGNRVTISCRASQDIRNYLNWYQQKPDGTFKLLISYTSRLHSGVPSRFSGSGSGTDYSLTVSNLEPEDIATYYCQQYSQLPWTFGGGSRLEIKR
notes: also called CHI-hCDH6-14; CH1-CDH6-14

Kd [2]: 3.68 nM
koff [2]: 0.00185 s⁻¹
kon [2]: 503000 M⁻¹ s⁻¹
EC50 [3]: 0.027 nM
Max OD450 [3]: 2.07 OD450
B3: CHI-CDH6-2 (antibody, human IgG1, kappa, V domains shown)
VH: EVQLQQSGPELVKPGASVRISCKASGYTFTDYYMNWVKQSHGKSLEWIGDIDPNNANTTYNQKFKGKATLTVDKSSSTAYMELRSLTSEDSAVYSCASFGYDVEWFGYWGQGTLVTVSA
VL: QIVLTQSPALMSASPGEKVTMTCSASSSVSYMYWYQQKPRSSPKPWIYLTSNLASGVPARFSGSGSGTSYSLTISSMEAEDAATYYCQQWSSNPFTFGSGTKLEIKR
notes: also called chimeric antibody of murine CDH6-2

Kd [2]: 78.1 nM
koff [2]: 0.00184 s⁻¹
kon [2]: 23600 M⁻¹ s⁻¹
EC50 [3]: 0.009 nM
Max OD450 [3]: 2.62 OD450
B4: CHI-CDH6-13 (antibody, human IgG1, kappa, V domains shown)
VH: DVQLQESGPGLVKPSQSLSLTCSVTGYSITKDSYWNWIRQFPGSKLEWMGFISYDGSRHYNPSLKNRISITRDTSKNQFFLQLNSVTTEDTATYYCARRDYADYWGQGTTLTVSS
VL: B3 VL with S14F, S26T, M32I, S75N, M77L, N93I, F95Y, S99G
notes: also called chimeric antibody of murine CDH6-13

Max MFI [1]: 17400 MFI
B8: CHI-CDH6-7 (antibody, human IgG1, kappa, V domains shown)
VH: EVKLVESGGGLVKPGGSLKVSCAASGFTFSDHGMAWVRQAPGKGPEWVAFISNLAYSIYYADTVTGRFTISRENAKNTLYLEMSSLRSEDTAMYYCARVYVKWYFDVWGAGTTVTVSS
VL: B6 VL with Y49F, S50A, K79Q, R93S, P96L, S100A, I106L
notes: also called CH1-CDH6-7; chimeric antibody of murine CDH6-7

Max MFI [1]: 16600 MFI
B12: CHI-CDH6-12 (antibody, human IgG1, kappa, V domains shown)
VH: EVNLVESGGGLVQPGDSLTLSCSASGFTFTDYYMSWVRQFPGKALEWLALIRNKANSYTTEYSASVKGRFTISRDNSQSILYLQMNALRAEDSATYYCARDSYYSHDGFAYWGQGTLVTVSA
VL: DIVLTQSPASLAVSLGQRATISCRASKSVSTSSYTYMHWYQQKPGQPPKLLIKFASYLESGVPARFSGSGSGTDFTLNIHPVEEEDAATYYCQHSREFPFTFGTGTKLEIKR
notes: also called CH1-CDH6-12; chimeric antibody of murine CDH6-12

Kd [2]: 20.3 nM
koff [2]: 0.00364 s⁻¹
kon [2]: 179000 M⁻¹ s⁻¹
EC50 [3]: 0.025 nM
Max OD450 [3]: 2.03 OD450
B13: CHI-CDH6-10 (antibody, human IgG1, kappa, V domains shown)
VH: QVQLQQPGAELVKPGTSVKMSCKASGYTFTSDWIAWVKQRPGQGLEWIGDIYPGSGRTHNNEKFNFKATLTVDTSSNTAYMQLSSLTSEDSAVYFCARPMLGRFDYWGQGTTLTVSS
VL: DIVLTQSPASLAVSLGQRATISCRASESVSIHGTHLMHWYQQKPGQPPKLLIYAASNLESGVPARFSGSGSETDFTLNIHPVEEEDAATYFCQQSFEDPFTFGSGTKLEIKR
notes: also called chimeric antibody of murine CDH6-10
